From the supplement of paper PMC10567573
± gives the standard deviation.

Assay: protein stability index of a GFP-peptide fusion (GPS, HEK-293T) (PSI 1-6); higher = more stable
Conditions: c terminus: a fixed tail appended
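Note: 24-mer peptide tiles fused after GFP, lentivirally expressed, FACS-sorted into six equal bins by GFP/DsRed ratio, decoded by Illumina sequencing, PSI is the read-weighted mean bin number.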

Sequence | protein stability index (treatment: DMSO) | protein stability index (treatment: MLN4924 1 uM, 8 h)
CPSSPKQIHLDVDNDRTTPSDLDS [DLC1] | 5.52 ± 0.1 | 5.55 ± 0.14
VRLRTLLCKVLGVLFSVAGGLFVG [CLCN6] | 2.87 ± 0.14 | 2.88 ± 0.17
SLRRRGASAAARLGCNRQSWCLKR [TRIM14] | 3.28 ± 0.28 | 3.16 ± 0.58
GRARFTTYEVRMRTNLPIFKLKES [SNX12] | 2.27 ± 0.11 | 2.17 ± 0.22
HEGEDQFLSLEASTETLVHVSDED [DLC1] | 5.61 ± 0.17 | 5.58 ± 0.32
AFVVYLETETLVTREAVTEILGIE [TSN] | 2.58 ± 0.6 | 2.52 ± 0.7
RPVSCSGRDALLDQIRQGIQLKSV [WASL] | 5.08 ± 0.56 | 4.95 ± 0.21
KSIDPVLMAPTCVFLASKVEEFGV [CCNC] | 1.92 ± 0.11 | 2.05 ± 0.34
VHSERKLLPLVTLCDGNPRRPSPV [SCNN1D] | 3.58 ± 0.23 | 3.56 ± 0.49
QMSGEPLDKLNFEAINFCRGLGSQ [ACSBG2] | 3.51 ± 0.49 | 2.89 ± 0.39
SRTSCRLSGGLGAGSCRLGSAGGL [KRT17] | 2.33 ± 0.44 | 2.23 ± 0.36
IWEQRSATVVMMTKLEERSRVKCD [PTPRD] | 3.29 ± 0.27 | 3.26 ± 0.41
VWMDDFKSHVYMAWNIPMSNPGVD [GALNT9] | 2.21 ± 0.3 | 2 ± 0.2
CLRCWDQRTIMKPLEYQFKSQIMS [TLE6] | 2.14 ± 0.27 | 2.47 ± 0.48
QVLRNNPDALSDVGEVPYWVLEPV [ELOA2] | 2.92 ± 0.52 | 3.34 ± 0.44
ELGVIFYNCSCLVLDLQRIFALYS [PLD5] | 3.24 ± 0.39 | 3.29 ± 1
PPQPGCPAFIIVKLSPLRDRLVVT [ZSWIM9] | 2.93 ± 1 | 2.99 ± 0.94
CAKLDSCALGDHGCEHSCVSSEDS [MATN2] | 4.91 ± 0.35 | 4.99 ± 0.38

Sequence | protein stability index (treatment: DMSO) | protein stability index (treatment: MLN4924 1 uM, 8 h)
NSGLINHQRIHTGEKPYECVQCGK [ZNF24] | 3.92 ± 0.17 | 3.99 ± 0.31
EEAVILLEDLERELDEPQHEMVAH [ZSCAN9] | 4.14 ± 0.6 | 4.2 ± 0.34
VFQHGDNSFRLLFDVVVILTCSLS [MCOLN1] | 3.25 ± 0.13 | 3.32 ± 0.21
RMGLMKANHVFFLLYLLHILLLDG [FADS1] | 2.94 ± 0.83 | 2.68 ± 0.52
DLNGAQIKLREYEAALNSKDAALA [LMNB1] | 3.5 ± 0.18 | 3.71 ± 0.39
VTLKTAVDGPDLEMLTGQERVALA [FKBP8] | 3.7 ± 0.23 | 3.81 ± 0.24
MLGRLGYLNHVRAASPQDLAGGYT [MNAT1] | 2.61 ± 0.14 | 2.59 ± 0.37
VRAHQDTQRRTSMGGTQQQFVEGV [CTNNB1] | 4.232 ± 0.018 | 4.24 ± 0.14
ISSTSTKRTYWPDLDAKIREALVL [PLD5] | 2.38 ± 0.39 | 2.43 ± 0.49
VLDSLLLTLLPQLQEAWQQRTPSP [RSAD1] | 2.85 ± 0.052 | 3.27 ± 0.43
SLLKKPDGVKESTESSNTTIEDED [CAMK2D] | 5.52 ± 0.11 | 5.43 ± 0.19
IFMLCTLVLAIPLLLILVSYVHIL [OR10K2] | 3.35 ± 0.26 | 3.18 ± 0.36
KRKLGLTALVGLRQNLSKSWLDVQ [TPD52L3] | 2.17 ± 0.71 | 2.16 ± 0.42
QCCQTEIIELRRTVNALEIELQAQ [KRT36] | 2.95 ± 0.49 | 2.76 ± 0.4
CRYATQLQQIQGLIGGLEAQLSEL [KRT15] | 2.23 ± 0.066 | 2.33 ± 0.18
MGGSGSRLSKELLAEYQDLTFLTK [CIB1] | 3.175 ± 0.031 | 3.27 ± 0.28
CFEASDCKESSPMPVICGPEENYP [NANOGP8] | 3.98 ± 0.32 | 4.24 ± 0.26
SSVQKALFEEEDHVKKLQQKVATL [CCDC3] | 4.46 ± 0.33 | 4.49 ± 0.32
